Reference: article PMC9508154

Target: eIF5-CTD_(-CTT)-EE, phosphomimetic mutant S389E/S390E (human) (UniProt P55010)
Test: NMR titration

UniProt P55010, sequence (P55010 232-431 S389E/S390E): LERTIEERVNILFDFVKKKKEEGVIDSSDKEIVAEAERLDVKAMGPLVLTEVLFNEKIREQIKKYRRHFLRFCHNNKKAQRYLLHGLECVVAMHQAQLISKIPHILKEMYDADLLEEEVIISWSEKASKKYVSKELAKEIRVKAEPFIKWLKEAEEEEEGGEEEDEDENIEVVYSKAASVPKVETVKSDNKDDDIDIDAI

N-terminal tail of the β subunit of eIF2 (eIF2β-NTT) (domain or fragment)
% CSP reduction at E17 of eIF1A-ΔC bound to m7: 83% | % CSP reduction at G5 of eIF1A-ΔC bound to m7: 95% | % CSP reduction at L25 of eIF1A-ΔC bound to m7: 62% | % CSP reduction at V26 of eIF1A-ΔC bound to m7: 38% | % CSP reduction at W69 of eIF1A-ΔC bound to m7: 63%

eIF1A N-terminal tail (eIF1A-NTT) (domain or fragment)
% CSP reduction at E17 of eIF1A-ΔC bound to m7: 32% | % CSP reduction at G5 of eIF1A-ΔC bound to m7: 40% | % CSP reduction at L25 of eIF1A-ΔC bound to m7: 20% | % CSP reduction at V26 of eIF1A-ΔC bound to m7: 24% | % CSP reduction at W69 of eIF1A-ΔC bound to m7: 22% | % CSP reduction at Y83 of eIF1A-ΔC bound to m7: 18%
